Laboratory results from patent US20210155701A1 (Chugai, published 2021).

T1: human CD3ed-Fc (biotin-labeled human CD3 epsilon and human CD3 delta linked to a human antibody constant … (human, biotin-labeled (BirA co-expression); site not stated)
T1 construct: also called CD3 epsilon delta heterodimer fused with the antibody constant region
T1 chain 1: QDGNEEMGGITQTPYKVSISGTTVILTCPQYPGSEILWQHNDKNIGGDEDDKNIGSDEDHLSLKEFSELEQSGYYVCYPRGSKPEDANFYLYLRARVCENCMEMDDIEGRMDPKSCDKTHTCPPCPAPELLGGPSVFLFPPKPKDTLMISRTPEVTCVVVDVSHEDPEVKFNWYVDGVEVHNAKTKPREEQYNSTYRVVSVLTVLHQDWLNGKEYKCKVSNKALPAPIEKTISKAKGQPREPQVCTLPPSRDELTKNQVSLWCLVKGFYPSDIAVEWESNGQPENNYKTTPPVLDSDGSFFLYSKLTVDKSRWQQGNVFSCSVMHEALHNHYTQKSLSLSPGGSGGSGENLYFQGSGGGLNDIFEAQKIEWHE
T1 chain 2: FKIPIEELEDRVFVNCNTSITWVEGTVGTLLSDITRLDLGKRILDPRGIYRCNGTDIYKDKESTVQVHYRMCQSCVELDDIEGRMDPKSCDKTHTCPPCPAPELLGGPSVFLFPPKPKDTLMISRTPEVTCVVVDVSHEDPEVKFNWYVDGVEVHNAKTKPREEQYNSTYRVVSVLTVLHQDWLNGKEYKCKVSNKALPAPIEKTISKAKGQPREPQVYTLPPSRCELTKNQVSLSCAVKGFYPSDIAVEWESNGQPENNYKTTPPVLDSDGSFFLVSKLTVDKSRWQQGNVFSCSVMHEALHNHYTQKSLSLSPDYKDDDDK

T2: soluble human IL-6R (human, UniProt P08887 20-357)
T2 construct: also called hsIL-6R; recombinant human IL6R
T2 sequence: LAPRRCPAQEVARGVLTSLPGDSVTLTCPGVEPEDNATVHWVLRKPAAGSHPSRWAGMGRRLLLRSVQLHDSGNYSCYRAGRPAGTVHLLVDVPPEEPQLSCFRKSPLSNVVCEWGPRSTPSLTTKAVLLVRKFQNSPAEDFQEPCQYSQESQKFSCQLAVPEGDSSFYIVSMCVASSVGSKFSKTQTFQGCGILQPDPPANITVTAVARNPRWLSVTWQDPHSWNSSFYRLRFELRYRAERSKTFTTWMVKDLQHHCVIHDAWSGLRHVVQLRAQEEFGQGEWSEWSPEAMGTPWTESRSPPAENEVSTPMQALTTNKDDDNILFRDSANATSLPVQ


Target: T1, human CD3ed-Fc (biotin-labeled human …)
Assay: phage display: phage ELISA or panning on biotin-labeled human CD3ed-Fc (binding clone for human CD3)
Protocol: The obtained phages were evaluated for their binding to IL6R, CD3 or plexin A1 by ELISA. The sequence of a bound clone was analyzed by a method known to those skilled in the art to identify VHH binding to the antigen.
Phage production was performed from E. coli retaining the constructed phagemids for phage display. A phage population was precipitated by the addition of 2.5 M NaCl/10% PEG to the culture solution of the E. coli after the phage production, and then diluted with TB S to obtain a phage library solution. […] The magnetic beads used were NeutrAvidin coated beads (FG beads NeutrAvidin) or Streptavidin coated beads (Dynabeads MyOne Streptavidin T1).
Specifically, 100 pmol of the biotin-labeled antigen was added to the prepared phage library solution, and the phage library solution was contacted with the antigen at room temperature for 60 minutes. The magnetic beads blocked with BSA were added thereto, and the complexes of the antigen and the phages were bound to the magnetic beads at room temperature for 15 minutes. The beads were washed twice with 0.5 mL of TBST (TBS containing 0.1% Tween 20; TBS was manufactured by Takara Bio Inc.) and then further washed once with 0.5 mL of TBS. Then, 0.5 mL of 1 mg/mL trypsin was added thereto, and the beads were suspended at room temperature for 15 minutes and immediately thereafter, separated using a magnetic stand to recover a phage solution. The recovered phage solution was added to 20 mL of an E. coli line ER2738 in an exponential stage of growth (OD600: 0.4-0.5). The E. coli was cultured with mild stirring at 37 degrees C. for 1 hour and thereby infected by the phages.

Row | binding result | Binder
1 | binds | bC3edL1R1N164H01 (VHH) VHH: QVQLVESGGGLVQPGGSLRLSCAASGFTFDVYGMSWVRHSPGKGLEWVSTINWNGGSTYYAESMKGRFTISRDNAKNTVYLQMNSLKPEDTAVYYCAKFAPWDGDMEWGQGTQVTVSG
2 | binds | bC3edL1R1N160H01 (VHH) VHH: QVQLVESGGGLVQPGGSLRLSCAASGFTFNHCWMYWVRQAPGKGLEWVSVINTDGGSAYYADSVKGRFTISRDNAKNTLYLQMNSLKSEDTAVYYCARDWAPLVDYYYGMDYWGKGTLVTVSG
3 | binds | bC3edL1R1N161H01 (VHH) VHH: QVQLVESGGGLVQPGGSLRLSCAASGFPFDNYVMSWVRQAPGKGLEWISAISWNGGSTYYAESMKGRFTISRDNAKSTLYLQMNSLKSEDTAVYYCAKEPRVYYSGSPDYWGQGTQVTVSG

What follows are binders tested against T2, soluble human IL-6R (assay: BLI (Octet) as in Example 3).

Row | binding result | Binder
4 | binds | 20A11-G1m/VK1-39-k0MT (antibody, human IgG1, kappa, V domains shown) VH: EVQLVESGGGLVQPGGSLRLSCAASGSVFKINVMAWYRQAPGKGRELVAGIISGGSTSYADSVKGRFTISRDNAKNTLYLQMNSLRPEDTAVYYCAFITTESDYDLGRRYWGQGTLVTVSS VL: DIQMTQSPSSLSASVGDRVTITCRASQSISSYLNWYQQKPGKAPKLLIYAASSLQSGVPSRFSGSGSGTDFTLTISSLQPEDFATYYCLQFDSYPLTFGGGTKVEIKR
5 | binds | 20A11-G1m/VL3-21-lamL (antibody, human IgG1, lambda, V domains shown) VH: EVQLVESGGGLVQPGGSLRLSCAASGSVFKINVMAWYRQAPGKGRELVAGIISGGSTSYADSVKGRFTISRDNAKNTLYLQMNSLRPEDTAVYYCAFITTESDYDLGRRYWGQGTLVTVSS VL: SYVLTQPPSVSVAPGKTARITCGGNNIGSKSVHWYQQKPGQAPVLVIYYDSDRPSGIPERFSGSNSGNTATLTISRVEAGDEADYYCQAWDSSTDVVFGGGTKLTVLG
6 | binds | 20A11-G1m/VL1-40-lamL (antibody, human IgG1, lambda, V domains shown) VH: EVQLVESGGGLVQPGGSLRLSCAASGSVFKINVMAWYRQAPGKGRELVAGIISGGSTSYADSVKGRFTISRDNAKNTLYLQMNSLRPEDTAVYYCAFITTESDYDLGRRYWGQGTLVTVSS VL: QSVLTQPPSVSGAPGQRVTISCTGSSSNIGAGYDVHWYQQLPGTAPKLLIYGNSNRPSGVPDRFSGSKSGTSASLAITGLQAEDEADYYCQSYDNSLNAVVFGGGTKLTVLG
7 | binds | 20A11-G1m/VK2-28-k0MT (antibody, human IgG1, kappa, V domains shown) VH: EVQLVESGGGLVQPGGSLRLSCAASGSVFKINVMAWYRQAPGKGRELVAGIISGGSTSYADSVKGRFTISRDNAKNTLYLQMNSLRPEDTAVYYCAFITTESDYDLGRRYWGQGTLVTVSS VL: not shown
8 | binds | 20A11-G1m/VL2-14-lamL (antibody, human IgG1, lambda, V domains shown) VH: EVQLVESGGGLVQPGGSLRLSCAASGSVFKINVMAWYRQAPGKGRELVAGIISGGSTSYADSVKGRFTISRDNAKNTLYLQMNSLRPEDTAVYYCAFITTESDYDLGRRYWGQGTLVTVSS VL: QSALTQPASVSGSPGQSITISCTGTSSDVGGYNYVSWYQQHPGKAPKLMIYEVSNRPSGVSNRFSGSKSGNTASLTISGLQAEDEADYYCSSYRSGYTLVVFGGGTKLTVLG
9 | binds | 20A11-G1m/VL1-44-lamL (antibody, human IgG1, lambda, V domains shown) VH: EVQLVESGGGLVQPGGSLRLSCAASGSVFKINVMAWYRQAPGKGRELVAGIISGGSTSYADSVKGRFTISRDNAKNTLYLQMNSLRPEDTAVYYCAFITTESDYDLGRRYWGQGTLVTVSS VL: not shown

Each binder was assayed against T2, soluble human IL-6R (assay: BLI (Octet HTX), molecule on Protein A biosensor, hsIL-6R as analyte, 30 degrees C).
Protocol: The hsIL-6R binding evaluation of each molecule was conducted using Octet HTX (Pall ForteBio Corp.). Specifically, each molecule was bound to Biosensor/Protein A (ProA) (Pall ForteBio Corp., 18-5013), and hsIL-6R was allowed to act thereon, followed by binding evaluation at 30 degrees C.

Row | binding result | Binder
10 | no binding | IL6R90-G1m/VK2-28-k0MT (antibody, human IgG1, kappa, V domains shown, IgG antibody-like molecule) VH: EVQLVESGGGLVQPGGSLRLSCAASGFTFDDYGMSWVRQAPGKALEWVSAISWNGNNTYYTESMKGRFTISRDNAKNTLYLQMNSLRPEDTAVYYCVKGSTAIVGVPPTYPDEYDYWGQGTLVTVSS VL: not shown
11 | no binding | IL6R90-G1m/VL2-14-lamL (antibody, human IgG1, lambda, V domains shown, IgG antibody-like molecule) VH: EVQLVESGGGLVQPGGSLRLSCAASGFTFDDYGMSWVRQAPGKALEWVSAISWNGNNTYYTESMKGRFTISRDNAKNTLYLQMNSLRPEDTAVYYCVKGSTAIVGVPPTYPDEYDYWGQGTLVTVSS VL: QSALTQPASVSGSPGQSITISCTGTSSDVGGYNYVSWYQQHPGKAPKLMIYEVSNRPSGVSNRFSGSKSGNTASLTISGLQAEDEADYYCSSYRSGYTLVVFGGGTKLTVLG
12 | no binding | IL6R90-G1m/VL1-44-lamL (antibody, human IgG1, lambda, V domains shown, IgG antibody-like molecule) VH: EVQLVESGGGLVQPGGSLRLSCAASGFTFDDYGMSWVRQAPGKALEWVSAISWNGNNTYYTESMKGRFTISRDNAKNTLYLQMNSLRPEDTAVYYCVKGSTAIVGVPPTYPDEYDYWGQGTLVTVSS VL: not shown
13 | no binding | IL6R90-G1m/VL1-40-lamL (antibody, human IgG1, lambda, V domains shown, IgG antibody-like molecule) VH: EVQLVESGGGLVQPGGSLRLSCAASGFTFDDYGMSWVRQAPGKALEWVSAISWNGNNTYYTESMKGRFTISRDNAKNTLYLQMNSLRPEDTAVYYCVKGSTAIVGVPPTYPDEYDYWGQGTLVTVSS VL: QSVLTQPPSVSGAPGQRVTISCTGSSSNIGAGYDVHWYQQLPGTAPKLLIYGNSNRPSGVPDRFSGSKSGTSASLAITGLQAEDEADYYCQSYDNSLNAVVFGGGTKLTVLG

Target: T1, human CD3ed-Fc (biotin-labeled human …)
Assay: BLI (Octet RED) as in Example 3

Row | binding result | Binder
14 | no binding | bC3edL1R1N160H01-G1mISHI01/VK1-39-k0MT (before protease treatment) (antibody, human IgG1, kappa, V domains shown) VH: QVQLVESGGGLVQPGGSLRLSCAASGFTFNHCWMYWVRQAPGKGLEWVSVINTDGGSAYYADSVKGRFTISRDNAKNTLYLQMNSLKSEDTAVYYCARDWAPLVDYYYGMDYWGKGTLVTVSG VL: DIQMTQSPSSLSASVGDRVTITCRASQSISSYLNWYQQKPGKAPKLLIYAASSLQSGVPSRFSGSGSGTDFTLTISSLQPEDFATYYCLQFDSYPLTFGGGTKVEIKR

These binders were tested against T2, soluble human IL-6R (assay: BLI (Octet) as in Example 3, 30 degrees C or 25 degrees C).

Row | binding result | Binder
15 | no binding | 20A11hu-G1m/VL1-40-lamL (antibody, human IgG1, lambda, V domains shown) VH: EVQLVESGGGLVQPGGSLRLSCAASGSVFKINVMAWVRQAPGKGLEWVAGIISGGSTSYADSVKGRFTISRDNAKNTLYLQMNSLRPEDTAVYYCAFITTESDYDLGRRYWGQGTLVTVSS VL: QSVLTQPPSVSGAPGQRVTISCTGSSSNIGAGYDVHWYQQLPGTAPKLLIYGNSNRPSGVPDRFSGSKSGTSASLAITGLQAEDEADYYCQSYDNSLNAVVFGGGTKLTVLG
16 | no binding | 20A11hu-G1m/VK1-39-k0MT (antibody, human IgG1, kappa, V domains shown) VH: EVQLVESGGGLVQPGGSLRLSCAASGSVFKINVMAWVRQAPGKGLEWVAGIISGGSTSYADSVKGRFTISRDNAKNTLYLQMNSLRPEDTAVYYCAFITTESDYDLGRRYWGQGTLVTVSS VL: DIQMTQSPSSLSASVGDRVTITCRASQSISSYLNWYQQKPGKAPKLLIYAASSLQSGVPSRFSGSGSGTDFTLTISSLQPEDFATYYCLQFDSYPLTFGGGTKVEIKR
17 | no binding | 20A11hu-G1m/VK2-28-k0MT (antibody, human IgG1, kappa, V domains shown) VH: EVQLVESGGGLVQPGGSLRLSCAASGSVFKINVMAWVRQAPGKGLEWVAGIISGGSTSYADSVKGRFTISRDNAKNTLYLQMNSLRPEDTAVYYCAFITTESDYDLGRRYWGQGTLVTVSS VL: not shown
18 | no binding | 20A11hu-G1m/VL2-14-lamL (antibody, human IgG1, lambda, V domains shown) VH: EVQLVESGGGLVQPGGSLRLSCAASGSVFKINVMAWVRQAPGKGLEWVAGIISGGSTSYADSVKGRFTISRDNAKNTLYLQMNSLRPEDTAVYYCAFITTESDYDLGRRYWGQGTLVTVSS VL: QSALTQPASVSGSPGQSITISCTGTSSDVGGYNYVSWYQQHPGKAPKLMIYEVSNRPSGVSNRFSGSKSGNTASLTISGLQAEDEADYYCSSYRSGYTLVVFGGGTKLTVLG
19 | no binding | 20A11hu-G1m/VL1-44-lamL (antibody, human IgG1, lambda, V domains shown) VH: EVQLVESGGGLVQPGGSLRLSCAASGSVFKINVMAWVRQAPGKGLEWVAGIISGGSTSYADSVKGRFTISRDNAKNTLYLQMNSLRPEDTAVYYCAFITTESDYDLGRRYWGQGTLVTVSS VL: not shown
